The values that follow come from patent US20080280298A1, “SATB1: A DETERMINANT OF MORPHOGENESIS AND TUMOR METASTASIS” (The Regents of the University of California, priority 2005, published 2008).

Data set [1] concerns MDA-MB-231 cells. Briefly: Experimental metastasis assay, tail vein injection into athymic mice, lung nodules. It is filed as in vivo, mouse. The conditions noted are these: 1×10^6 cells i.v., nine weeks, six mice. The protocol: The removal of SATB1 from MDA-MB-231 (aggressive) cells diminished metastatic activity: SATB1-shRNA1 MDA, SATB1-shRNA2 MDA, and control cells (1×10^6 cells) were injected intravenously into the lateral tail vein of 6-week-old athymic mice to evaluate metastasis of these cancer cell lines to lung. In mice, the metastasis of orthotopically grown tumors derived from human MDA-MB-231 cells is a relatively rare event. Therefore, by directly introducing cells into the circulation, we examined the requirement of SATB1 in cancer cell survival in circulation and extravasation to and growth in the lung. By nine weeks after tumor-cell injection, the lungs of mice injected with the control cells had formed numerous nodules, ranging in number from 125 to 160 per lung in all six mice analyzed (FIG. 11a,b). […]
1×10^6 cells MDA-MB-231 cells expressing control-shRNA, SATB1-shRNA1 or SATB1-shRNA2 MDA cells were injected into the tail veins of each mouse, and lungs were examined for metastatic nodules (arrows) 9 weeks later. […] In FIG. 11b, total numbers of metastatic lung nodules from individual mice were counted under a dissection microscope. For lungs of representative mice indicated, human SATB1 expression levels in human breast cancer cells colonized in lungs were analyzed by RT-PCR using human GAPDH as a loading control, with the use of human SATB1 and GAPDH specific oligomers. […]

In data set [2] the test system is MDA-MB-231 cells. Briefly: Cell morphology and immunostaining in 3D Matrigel culture. It is filed as cell-based, human. The conditions noted are these: F-actin, β-catenin, integrin α6 immunostaining. On the procedure: Changes in cell morphology. Referring now to FIG. 5, phase contrast micrographs of MDA-MB-231 control cells (control shRNA) or SATB1-shRNA1 MDA cells (SATB1-shRNA1) cultured on plastic (2D) and matrigel (3D) are shown. Major differences in cell morphology were observed when SATB1-shRNA1 MDA cells were grown in 3D culture, compared to control cells. The cell morphology was changed from stellate-like scattered (MDA-MB-231 with control shRNA) to spherical structures (MDA-MB-231 with SATB1-shRNA). […] In addition, MDA-MB-231 cells expressing SATB1-shRNA were able to basally deposit and organize a basement membrane on Matrigel, showing the characteristic acini formation, even though there was a minor difference in morphology as observed in MCF10A control cells.
Immunostaining of cells in culture. Total 1×10^4 cells mixed with Matrigel (5 mg/mL) were plated in 6-well plates pre-coated in a thick layer (1 mm) of Matrigel. Solidified Matrigel was overlaid with Growth medium (DMEM), and renewed at every 4 days. Colony formation and cell morphology was observed under light microscopy after 3 days to 14 days.
Cells were fixed in 4% paraformaldehyde, permeablized in 0.1% Triton X100, and blocked in 5% BSA. […] Staining was detected with secondary Alexa Fluor 488 and/or Alexa Fluor 594 Abs (Molecular Probes). […]

Data set [3] relates to MDA-MB-231 cells. Briefly: Cell growth assay on plastic (2D) and Matrigel (3D). The conditions noted are these: 2D and 3D cultures up to 11 days, compared with parental cell line and control cells. The class given is cell-based, human. The source says:
Reduction of cell proliferation rate. We examined whether loss of SATB1 expression affects cancer cell proliferation by culturing SATB1-shRNA1 MDA and SATB1-shRNA2 MDA cells on plastic dish {two-dimensional (2D) culture} or on a reconstituted basement membrane derived from Engelbreth-Holm-Swarm Tumor (Matrigel™) {three-dimensional (3D) culture}.
Cell Growth Assay. […] Growth medium were renewed every 4 days. Cells were harvested by trypsin treatment, and counted at each time point using a cell counter (Beckman Coulter, Inc.; Fullerton, Calif.) and haematocytometer. […] Cells were treated with dispase (BD Biosciences, Inc.) for 2 h at 37° C. to be isolated from Matrigel, incubated with trypsin for further 5 min, and counted using a haematocytometer. […]

For data set [4], the system named is MDA-MB-231 cells. The data set can be described thus: Boyden chamber invasion assay. The class given is cell-based, human. The conditions noted are these: remaining invasiveness. On the procedure: Boyden chamber assay. Boyden chamber chemo-migration assays were performed using a 24-well chemotaxis chamber (BD biosciences, Inc.). Breast cancer cells were seeded in triplicate at 50,000 cells/well onto the upper chambers with a 8 μm polycarbonate filter membrane coated with diluted Matrigel (10-25%) (BD biosciences, Inc.), and incubated at 37° C. in humidified 5% CO2 for 20 hrs. Conditioned media derived from NIH3T3 fibroblast cultures was used as a chemoattractant in the lower chambers. The migrated cells on underside of chambers were fixed in 10% (wt/vol) buffered-formalin and stained with crystal violet. After removal of cells remaining in the top chamber with a cotton swab, the numbers of cells that had migrated through the pores were assessed by light microscopy.

Data set [5] relates to SATB1. Briefly: SATB1 expression in MDA-MB-231 cells stably transfected with shRNA (Western blot, real-time RT-PCR). The class given is cell-based, human. The conditions noted are these: for Expression of SATB1 was lowered by / SATB1 expression levels: MDA-MB-231 cells stably expressing the shRNA; for SATB1 expression levels: remaining expression; for SATB1 expression (in words): Western blot and quantitative RT-PCR, compared to parental MDA-MB-231 cells. On the procedure:
It was then tested whether suppression of SATB1 level in the highly metastatic MDA-MB-231 cells would affect their aggressiveness. Short hairpin-interfering RNAs (shRNA) were successfully designed to target SATB1 expression and are identified herein as SEQ ID NOs: 4-7.
Two shRNAs were designed according to SATB1 sequence (GenBank Accession No. NM_002971, hereby incorporated by reference) using siRNA Target Finder (Ambion, Austin, Tex.); The sequences of each oligoduplex were targeted as follows: shRNA2423, 5′-GGATTTGGAAGAGAGTGTC-3′ (SEQ ID NO: 8), or shRNA2595, 5′-GTCCACCTTGTCTTCTCTC-3′ (SEQ ID NO: 9). The oligoduplexes were cloned into the plasmid pSUPER (Oligoengine, Seattle, Wash.). Prepared DNAs were transfected into the aggressive breast cancer cell line MDA-MB-231 by lipofectamine 2000 (Invitrogen) and successfully transfected cells were selected by puromycin at 2 μg/ml or G418 at 1.5 mg/ml from 24 h after transfection. Single MDA-MB-231 cell clone stably expressing either shRNA2423 or shRNA2595 is designated SATB1-shRNA1 MDA or SATB1-shRNA2 MDA cells, respectively. For overexpression of SATB1, full length of SATB1 including 3′UTR was cloned into retroviral vector pLXSN (Clontech, Mountain View, Calif.), and the viral solution was produced using PT67 package cell lines. Hs578T cells were infected with this viral solution, and stably infected cells were selected by G418 at 0.8 mg/ml for 5 days. The status of SATB1 level in manipulated MDA-MB-231 and Hs578T cells were examined by Western blot and real-time RT-PCR.
To evaluate the change of gene expression level depending on SATB1 status, semi-quantitative or real-time RT-PCR analysis of selected genes was performed (primer sequences are available upon request). Total RNA was extracted for cell lines using TR1 reagent (Sigma) followed by RNA clean-up with RNeasy Mini kit (Qiagen, Valencia, Calif.). For semi-quantitative RT-PCR, 5 μg of total RNA was reverse-transcribed into single stranded cDNA using Superscript II RNaseH-reverse transcriptase (Invitrogen) according to the protocol supplied with the kit. PCR cycle was controlled starting from 25 to 40 cycles upon gene-specific primers (20 ng of cDNA/reaction). Each cycle consisted of the following steps, using GeneAmp PCR system 9700 (PerkinElmer Inc., Fremont, Calif.); 94° C. for 30 s, 55° C. for 30 s, and 72° C. for 60 s. PCR products were separated on 1.5% agarose gels and visualized them by staining with ethidium bromide. SYBR Green PCR Core Reagents system was used for real-time monitoring of amplification on ABI 7500 Fast Real-time PCR System (Applied Biosystems, Foster City, Calif.). Absolute quantification method was employed to quantify target DNA fragments in triplicate with following cycling condition; 95° C. for 2 min, followed by 40 cycles of 95° C. for 3 s and 60° C. for 30 s.
For orientation: In western blotting, separated proteins are transferred to a membrane and probed.

Data set [6] deals with MDA-MB-231 cells. Briefly: Gene expression profiling (Affymetrix and Codelink microarrays). It is filed as cell-based, human. The conditions noted are these: >1.5-fold, under both plastic and Matrigel culture, versus control shRNA. The source says:
We performed gene expression profiling on MDA-MB-231 cells expressing either control shRNA or SATB1-shRNA1 grown in culture. […] We also categorized those affected genes based on the gene ontology (GO)(URL: <http//www.geneontology.org/index.shtml>) annotation.

The subject of data set [7] is MDA-MB-231 cells. Briefly: Tumor growth in mammary fat pads of athymic nude mice. It is filed as in vivo, mouse. The conditions noted are these: 6 mice, clone or pool of cells; controls formed large tumors within 39 days (6/6). The text has this: We injected control and SATB1-shRNA1 cells into the fourth mammary fat pads of athymic nude mice and monitored tumor growth.

B1: SATB1-shRNA2: shRNA against the SATB1 3′UTR, target GTCCACCTTGTCTTCTCTC (SEQ ID NO: 9); SEQ ID NOs: 6/7, expressed from pSUPER-puro (nucleic acid)
chain 1: GATCCCCGTCCACCTTGTCTTCTCTCTTCAAGAGAGAGAGAAGACAAGGTGGACTTTTTGGAAA
chain 2: AGCTTTTCCAAAAAGTCCACCTTGTCTTCTCTCTCTCTTGAAGAGAGAAGACAAGGTGGACGGG
modifications: the letters are possibly those of the target site
For B1, in data set [1], the “lung metastases observed (in words)” value is listed as “not observed in five out of six mice”. Besides, in data set [1] (control cells 125 to 160 per lung), the “number of lung metastases (nodules per lung)” value is on record as “five”. The “cell morphology in 3D culture” value in data set [2] was “organized and polarized morphology, forming acinus-like structures”. The proliferation rates result in data set [3] was “significantly reduced”. The “invasiveness compared with host MDA-MB-231 cells” value in data set [4] is on record as 20%. Moreover, in data set [5], the “Expression of SATB1 was lowered by” value is listed as 90%, the SATB1 expression levels is 12.5%±5.2 and the “SATB1 expression (in words)” value is reported as “greatly reduced”.

B2: SATB1-shRNA1: shRNA against the SATB1 coding region, target GGATTTGGAAGAGAGTGTC (SEQ ID NO: 8); SEQ ID NOs: 4/5, expressed from pSUPER-puro (nucleic acid)
chain 1: GATCCCCGGATTTGGAAGAGAGTGTCTTCAAGAGAGACACTCTCTTCCAAATCCTTTTTGGAAA
chain 2: AGCTTTTCCAAAAAGGATTTGGAAGAGAGTGTCTCTCTTGAAGACACTCTCTTCCAAATCCGGG
modifications: target site or template, no part of the molecule
For B2, in data set [6], the “downregulated genes upon SATB1 depletion (Tree 1)” value amounted to 409 genes and the “upregulated genes upon SATB1 depletion (Tree 2)” value is listed as 456 genes. The “cell morphology in 3D culture” value in data set [2] was “organized and polarized morphology, forming acinus-like structures”. The proliferation rates result in data set [3] was “significantly reduced”. Moreover, the “invasiveness compared with host MDA-MB-231 cells” value in data set [4] is 20%. In addition, in data set [7], the “tumor growth in mammary fat pads” value was “either no tumors or greatly reduced tumor growth”. Moreover, in data set [5], the “Expression of SATB1 was lowered by” value is reported as 70%, the SATB1 expression levels was 30.4%±3.7 and the “SATB1 expression (in words)” value is “greatly reduced”.
